Reference: patent publication US20230357348A1 (AstraZeneca / MedImmune, published 2023)
Starred links: 1 amine or outer side, 2 acyl side, 3 side chain; linkers in the order of their positions; H or OH if unused. Non-standard residues stand in square brackets, D forms with d. Groups on a side chain read outwards from the residue. No end group written: not given here. *: point of attachment. C18 diacid = O=C(O)CCCCCCCCCCCCCCCCC(=O)*; γGlu = O=C(O)[C@H](CCC(=O)[*:2])N[*:1]; αMeF = C[C@](N)(Cc1ccccc1)C(=O)O; AEEA = NCCOCCOCC(=O)O; Aib = CC(C)(N)C(=O)O

Legend:
[1] = target: human GLP-1 receptor (hGLP-1R) (human, UniProt P43220 24-463); assay: cell-based or functional assay
[2] = target: human glucagon receptor (hGCGR) (human, UniProt P47871 26-477); assay: cell-based or functional assay
Chain of human glucagon receptor (hGCGR) (P47871 26-477): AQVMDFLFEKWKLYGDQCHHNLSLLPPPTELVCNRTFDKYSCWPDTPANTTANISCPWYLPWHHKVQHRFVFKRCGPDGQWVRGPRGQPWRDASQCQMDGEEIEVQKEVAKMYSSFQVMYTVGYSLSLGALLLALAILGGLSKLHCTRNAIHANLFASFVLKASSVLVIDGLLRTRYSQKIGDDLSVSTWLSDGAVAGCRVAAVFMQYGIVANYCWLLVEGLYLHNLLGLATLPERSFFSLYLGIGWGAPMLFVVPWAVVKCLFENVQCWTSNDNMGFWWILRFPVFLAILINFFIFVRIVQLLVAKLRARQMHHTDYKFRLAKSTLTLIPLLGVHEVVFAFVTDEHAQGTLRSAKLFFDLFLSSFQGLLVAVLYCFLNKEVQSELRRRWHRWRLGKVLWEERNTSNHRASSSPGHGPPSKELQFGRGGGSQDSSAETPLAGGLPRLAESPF

B1: Peptide 424 (peptide)
peptide: H[Aib]QGTFTSDVSK[αMeF]LDKK([AEEA-AEEA-γGlu-C18 diacid])RAQDFVRWLL[Aib]TK-OH
modifications: N-terminus assumed
SMILES: CC(C)C[C@H](NC(=O)[C@H](Cc1c[nH]c2ccccc12)NC(=O)[C@H](CCCNC(=N)N)NC(=O)[C@@H](NC(=O)[C@H](Cc1ccccc1)NC(=O)[C@H](CC(=O)O)NC(=O)[C@H](CCC(N)=O)NC(=O)[C@H](C)NC(=O)[C@H](CCCNC(=N)N)NC(=O)[C@H](CCCCNC(=O)COCCOCCNC(=O)COCCOCCNC(=O)CC[C@H](NC(=O)CCCCCCCCCCCCCCCCC(=O)O)C(=O)O)NC(=O)[C@H](CCCCN)NC(=O)[C@H](CC(=O)O)NC(=O)[C@H](CC(C)C)NC(=O)[C@](C)(Cc1ccccc1)NC(=O)[C@H](CCCCN)NC(=O)[C@H](CO)NC(=O)[C@@H](NC(=O)[C@H](CC(=O)O)NC(=O)[C@H](CO)NC(=O)[C@@H](NC(=O)[C@H](Cc1ccccc1)NC(=O)[C@@H](NC(=O)CNC(=O)[C@H](CCC(N)=O)NC(=O)C(C)(C)NC(=O)[C@@H](N)Cc1c[nH]cn1)[C@@H](C)O)[C@@H](C)O)C(C)C)C(C)C)C(=O)N[C@@H](CC(C)C)C(=O)NC(C)(C)C(=O)N[C@H](C(=O)N[C@@H](CCCCN)C(=O)O)[C@@H](C)O
hGLP-1R EC50 (pM) [1]: 15.5 pM
hGluc-R EC50 (pM) [2]: 129 pM

B2: Peptide 423 (peptide)
peptide: H[Aib]QGTFTSDVSK[αMeF]LDKK([AEEA-AEEA-γGlu-C18 diacid])RAQDFVRWLK[Aib]TE-OH
modifications: N-terminus assumed
SMILES: CC(C)C[C@H](NC(=O)[C@H](Cc1c[nH]c2ccccc12)NC(=O)[C@H](CCCNC(=N)N)NC(=O)[C@@H](NC(=O)[C@H](Cc1ccccc1)NC(=O)[C@H](CC(=O)O)NC(=O)[C@H](CCC(N)=O)NC(=O)[C@H](C)NC(=O)[C@H](CCCNC(=N)N)NC(=O)[C@H](CCCCNC(=O)COCCOCCNC(=O)COCCOCCNC(=O)CC[C@H](NC(=O)CCCCCCCCCCCCCCCCC(=O)O)C(=O)O)NC(=O)[C@H](CCCCN)NC(=O)[C@H](CC(=O)O)NC(=O)[C@H](CC(C)C)NC(=O)[C@](C)(Cc1ccccc1)NC(=O)[C@H](CCCCN)NC(=O)[C@H](CO)NC(=O)[C@@H](NC(=O)[C@H](CC(=O)O)NC(=O)[C@H](CO)NC(=O)[C@@H](NC(=O)[C@H](Cc1ccccc1)NC(=O)[C@@H](NC(=O)CNC(=O)[C@H](CCC(N)=O)NC(=O)C(C)(C)NC(=O)[C@@H](N)Cc1c[nH]cn1)[C@@H](C)O)[C@@H](C)O)C(C)C)C(C)C)C(=O)N[C@@H](CCCCN)C(=O)NC(C)(C)C(=O)N[C@H](C(=O)N[C@@H](CCC(=O)O)C(=O)O)[C@@H](C)O
hGLP-1R EC50 (pM) [1]: 26.1 pM
hGluc-R EC50 (pM) [2]: 2220 pM

B3: Peptide 422 (peptide)
peptide: H[Aib]QGTFTSDVSK[αMeF]LDRK([AEEA-AEEA-γGlu-C18 diacid])RAQDFVRWLL[Aib]TE-NH2
modifications: N-terminus assumed
SMILES: CC(C)C[C@H](NC(=O)[C@H](Cc1c[nH]c2ccccc12)NC(=O)[C@H](CCCNC(=N)N)NC(=O)[C@@H](NC(=O)[C@H](Cc1ccccc1)NC(=O)[C@H](CC(=O)O)NC(=O)[C@H](CCC(N)=O)NC(=O)[C@H](C)NC(=O)[C@H](CCCNC(=N)N)NC(=O)[C@H](CCCCNC(=O)COCCOCCNC(=O)COCCOCCNC(=O)CC[C@H](NC(=O)CCCCCCCCCCCCCCCCC(=O)O)C(=O)O)NC(=O)[C@H](CCCNC(=N)N)NC(=O)[C@H](CC(=O)O)NC(=O)[C@H](CC(C)C)NC(=O)[C@](C)(Cc1ccccc1)NC(=O)[C@H](CCCCN)NC(=O)[C@H](CO)NC(=O)[C@@H](NC(=O)[C@H](CC(=O)O)NC(=O)[C@H](CO)NC(=O)[C@@H](NC(=O)[C@H](Cc1ccccc1)NC(=O)[C@@H](NC(=O)CNC(=O)[C@H](CCC(N)=O)NC(=O)C(C)(C)NC(=O)[C@@H](N)Cc1c[nH]cn1)[C@@H](C)O)[C@@H](C)O)C(C)C)C(C)C)C(=O)N[C@@H](CC(C)C)C(=O)NC(C)(C)C(=O)N[C@H](C(=O)N[C@@H](CCC(=O)O)C(N)=O)[C@@H](C)O
hGLP-1R EC50 (pM) [1]: 27.6 pM
hGluc-R EC50 (pM) [2]: 123 pM
